# What was measured:
# Assay in all cases: cell-based or functional assay
# [1] = target: T1, HIV-1 DU422.1 envelope (Env) on Env.IMC.LucR virus (HIV-1 clade C)
# [2] = target: T2, HIV-1 CAP45.2.00.G3 envelope (Env) on Env.IMC.LucR virus (HIV-1 clade C)
# [3] = target: T3, HIV-1 X1632_S2_B10 envelope (Env) on Env.IMC.LucR virus (HIV-1 clade G)
# [4] = target: T4, HIV-1 CNE20 envelope (Env) on Env.IMC.LucR virus (HIV-1 clade BC)
# [5] = target: T5, HIV-1 DU172.17 envelope (Env) on Env.IMC.LucR virus (HIV-1 clade C)
# [6] = target: T6, HIV-1 REJO4541.67 envelope (Env) on Env.IMC.LucR virus (HIV-1 clade B)
# [7] = target: T7, HIV-1 AC10.0.29 envelope (Env) on Env.IMC.LucR virus (HIV-1 clade B)
# [8] = target: T1, HIV-1 DU422.1 envelope (Env) on …; remark: listed apart in the source
# [9] = target: HIV-1 ZM233M.PB6 envelope (Env) on Env.IMC.LucR virus (HIV-1 clade C)
# [10] = target: HIV-1 WITO4160.33 envelope (Env) on Env.IMC.LucR virus (HIV-1 clade B)
# [11] = target: T2, HIV-1 CAP45.2.00.G3 envelope (Env) on …; remark: listed apart in the source
# [12] = target: T3, HIV-1 X1632_S2_B10 envelope (Env) on …; remark: listed apart in the source
# [13] = target: T4, HIV-1 CNE20 envelope (Env) on …; remark: listed apart in the source
# [14] = target: T5, HIV-1 DU172.17 envelope (Env) on …; remark: listed apart in the source
# [15] = target: T6, HIV-1 REJO4541.67 envelope (Env) on …; remark: listed apart in the source
# [16] = target: HIV-1 THRO4156.18 envelope (Env) on Env.IMC.LucR virus (HIV-1 clade B)
# [17] = target: T7, HIV-1 AC10.0.29 envelope (Env) on …; remark: listed apart in the source
# [18] = target: T5, HIV-1 DU172.17 envelope (Env) on …; remark: listed apart in the source
binder,measurement,setting,value
"NVS49-L1A2 (antibody, V domains shown) VH: ADLVQSGAVVKKPGDSVRISCEAQGYRFPDYIIHWIRRAPGQGPEWMGWMNPMGGQVNIPWKFQGRVSMTRDTSIETAFLDLRGLKSDDTAVYYCVRDRSNGSGKRFESSNWFLDLWGRGTAVTIQS VL: QSALTQPRSVSASPGQSVTISCTGTHNLVSWCQHQPGRAPKLLIYDFNKRPSGVPDRFSGSGSGGTASLTITGLQDDDDAEYFCWAYEAFGGGTKLTVL","IC50 of virus neutralization (TZM-BL, luciferase); L1A2 lot CRO #1, 293 cells",[1],> 50 µg/mL
same,"IC50 of virus neutralization (TZM-BL, luciferase); L1A2 lot CRO #2, 293 cells",[1],> 50 µg/mL
same,"IC50 of virus neutralization (TZM-BL, luciferase); L1A2 lot CRO #2, CHO cells",[1],> 50 µg/mL
same,"IC50 of virus neutralization (TZM-BL, luciferase); L1A2 lot CRO #1, 293 cells",[2],0.132 µg/mL
same,"IC50 of virus neutralization (TZM-BL, luciferase); L1A2 lot CRO #2, 293 cells",[2],0.209 µg/mL
same,"IC50 of virus neutralization (TZM-BL, luciferase); L1A2 lot CRO #2, CHO cells",[2],0.162 µg/mL
same,"IC50 of virus neutralization (TZM-BL, luciferase); L1A2 lot CRO #1, 293 cells",[3],> 50 µg/mL
same,"IC50 of virus neutralization (TZM-BL, luciferase); L1A2 lot CRO #2, 293 cells",[3],> 50 µg/mL
same,"IC50 of virus neutralization (TZM-BL, luciferase); L1A2 lot CRO #2, CHO cells",[3],> 50 µg/mL
same,"IC50 of virus neutralization (TZM-BL, luciferase); L1A2 lot CRO #1, 293 cells",[4],0.089 µg/mL
same,"IC50 of virus neutralization (TZM-BL, luciferase); L1A2 lot CRO #2, 293 cells",[4],0.124 µg/mL
same,"IC50 of virus neutralization (TZM-BL, luciferase); L1A2 lot CRO #2, CHO cells",[4],0.092 µg/mL
same,"IC50 of virus neutralization (TZM-BL, luciferase); L1A2 lot CRO #1, 293 cells",[5],0.268 µg/mL
same,"IC50 of virus neutralization (TZM-BL, luciferase); L1A2 lot CRO #2, 293 cells",[5],0.279 µg/mL
same,"IC50 of virus neutralization (TZM-BL, luciferase); L1A2 lot CRO #2, CHO cells",[5],0.507 µg/mL
same,"IC50 of virus neutralization (TZM-BL, luciferase); L1A2 lot CRO #1, 293 cells",[6],0.054 µg/mL
same,"IC50 of virus neutralization (TZM-BL, luciferase); L1A2 lot CRO #2, 293 cells",[6],0.072 µg/mL
same,"IC50 of virus neutralization (TZM-BL, luciferase); L1A2 lot CRO #2, CHO cells",[6],0.045 µg/mL
same,"IC50 of virus neutralization (TZM-BL, luciferase); L1A2 lot CRO #1, 293 cells",[7],> 50 µg/mL
same,"IC50 of virus neutralization (TZM-BL, luciferase); L1A2 lot CRO #2, 293 cells",[7],> 50 µg/mL
same,"IC50 of virus neutralization (TZM-BL, luciferase); L1A2 lot CRO #2, CHO cells",[7],> 50 µg/mL
same,"IC50 of virus neutralization (TZM-BL, luciferase)",[8],> 50 µg/mL
same,"IC50 of virus neutralization (TZM-BL, luciferase)",[9],0.613 µg/mL
same,"IC50 of virus neutralization (TZM-BL, luciferase)",[10],0.2 µg/mL
same,"IC50 of virus neutralization (TZM-BL, luciferase)",[11],0.209 µg/mL
same,"IC50 of virus neutralization (TZM-BL, luciferase)",[12],> 50 µg/mL
same,"IC50 of virus neutralization (TZM-BL, luciferase)",[13],0.124 µg/mL
same,"IC50 of virus neutralization (TZM-BL, luciferase)",[14],0.279 µg/mL
same,"IC50 of virus neutralization (TZM-BL, luciferase)",[15],0.072 µg/mL
same,"IC50 of virus neutralization (TZM-BL, luciferase)",[16],1.04 µg/mL
same,"IC50 of virus neutralization (TZM-BL, luciferase)",[17],> 50 µg/mL
"NglycoND (antibody, V domains shown) VH: ADLVQSGAVVKKPGDSVRISCEAQGYRFPDYIIHWIRRAPGQGPEWMGWMNPMGGQVNIPWKFQGRVSMTRDTSIETAFLDLRGLKSDDTAVYYCVRDRSDGSGKRFESSNWFLDLWGRGTAVTIQS VL: QSALTQPRSVSASPGQSVTISCTGTHNLVSWCQHQPGRAPKLLIYDFNKRPSGVPDRFSGSGSGGTASLTITGLQDDDDAEYFCWAYEAFGGGTKLTVL",fold increase in neutralization IC50 as compared to parent mAb L1A2,[18],~65 fold
same,"IC50 of virus neutralization (TZM-BL, luciferase)",[8],> 50 µg/mL
same,"IC50 of virus neutralization (TZM-BL, luciferase)",[11],0.077 µg/mL
same,"IC50 of virus neutralization (TZM-BL, luciferase)",[12],> 50 µg/mL
same,"IC50 of virus neutralization (TZM-BL, luciferase)",[13],> 50 µg/mL
same,"IC50 of virus neutralization (TZM-BL, luciferase)",[14],18.3 µg/mL
same,"IC50 of virus neutralization (TZM-BL, luciferase)",[15],0.062 µg/mL
same,"IC50 of virus neutralization (TZM-BL, luciferase)",[17],> 50 µg/mL
